Laboratory results from US20260242487A1.

Experiments:
[1] = molecular target: human FGFR2c expressed on CHOK1 cells (human) (UniProt P21802); experiment: flow cytometry on CHOK1 cells expressing hFGFR2c, detection with APC anti-human IgG Fc
[2] = molecular target: hFGFR2b-Fc (Kactus, Catalog #FGR-HM2BB) (human) (UniProt P21802); experiment: competition ELISA: inhibition of FGF7-his binding to coated hFGFR2b-Fc
[3] = molecular target: hFGFR2b-Fc (Kactus, Catalog #FGR-HM2BB) (human) (UniProt P21802); experiment: epitope binning ELISA: competing Ab FPA144 in solution with biotin-hFGFR2b-Fc; competitor (column, coated) HC18
[4] = molecular target: hFGFR2b-Fc (Kactus, Catalog #FGR-HM2BB) (human) (UniProt P21802); experiment: competition ELISA: inhibition of biotin-FGF10 binding to coated hFGFR2b-Fc
[5] = molecular target: human FGFR2b expressed on cells (hFGFR2b-expressing CHOK1 cells; Ba/F3 cells expressing full-length human FGFR2b) (human) (UniProt P21802); experiment: flow cytometry on CHOK1 cells expressing hFGFR2b, detection with APC anti-human IgG Fc
Sequence of human FGFR2b expressed on cells (hFGFR2b-expressing CHOK1 cells; Ba/F3 cells expressing full-length human FGFR2b) (human) (P21802 other isoform, or with tags, fused parts or gaps): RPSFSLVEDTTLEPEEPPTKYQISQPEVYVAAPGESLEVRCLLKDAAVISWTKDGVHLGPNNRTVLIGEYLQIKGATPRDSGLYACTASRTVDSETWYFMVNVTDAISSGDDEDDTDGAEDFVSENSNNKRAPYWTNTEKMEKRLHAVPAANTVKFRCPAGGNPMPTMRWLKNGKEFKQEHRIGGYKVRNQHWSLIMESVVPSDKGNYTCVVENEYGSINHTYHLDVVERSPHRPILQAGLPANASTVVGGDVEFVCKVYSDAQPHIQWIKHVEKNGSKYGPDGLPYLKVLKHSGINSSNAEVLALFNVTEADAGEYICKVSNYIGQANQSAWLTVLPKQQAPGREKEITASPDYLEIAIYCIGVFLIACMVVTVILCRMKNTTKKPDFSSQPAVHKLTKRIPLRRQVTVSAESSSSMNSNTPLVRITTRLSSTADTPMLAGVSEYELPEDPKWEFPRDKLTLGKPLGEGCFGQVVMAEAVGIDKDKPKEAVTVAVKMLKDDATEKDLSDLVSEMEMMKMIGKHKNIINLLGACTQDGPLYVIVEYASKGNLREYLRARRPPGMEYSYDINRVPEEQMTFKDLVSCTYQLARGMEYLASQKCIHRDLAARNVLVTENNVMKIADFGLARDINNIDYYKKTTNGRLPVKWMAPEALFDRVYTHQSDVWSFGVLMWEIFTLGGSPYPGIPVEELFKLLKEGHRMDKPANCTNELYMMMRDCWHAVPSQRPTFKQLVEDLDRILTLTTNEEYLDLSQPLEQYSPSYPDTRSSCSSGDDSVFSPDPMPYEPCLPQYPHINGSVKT

[6] = molecular target: hFGFR2b-Fc (Kactus, Catalog #FGR-HM2BB) (human) (UniProt P21802); experiment: epitope binning ELISA: competing Ab FPA144 in solution with biotin-hFGFR2b-Fc; competitor (column, coated) FPA144

Sequence of hFGFR2b-Fc (Kactus, Catalog #FGR-HM2BB) (human) (P21802 other isoform, or with tags, fused parts or gaps): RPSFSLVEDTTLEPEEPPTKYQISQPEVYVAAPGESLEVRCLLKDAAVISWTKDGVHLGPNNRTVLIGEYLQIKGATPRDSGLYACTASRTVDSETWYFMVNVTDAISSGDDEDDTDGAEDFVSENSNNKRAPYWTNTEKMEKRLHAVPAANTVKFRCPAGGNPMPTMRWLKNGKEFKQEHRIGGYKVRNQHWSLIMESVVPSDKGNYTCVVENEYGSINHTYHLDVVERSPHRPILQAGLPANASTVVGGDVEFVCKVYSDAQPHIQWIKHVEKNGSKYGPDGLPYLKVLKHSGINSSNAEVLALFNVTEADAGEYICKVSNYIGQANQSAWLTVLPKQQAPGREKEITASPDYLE
Sequence of human FGFR2c expressed on CHOK1 cells (human) (P21802 22-821): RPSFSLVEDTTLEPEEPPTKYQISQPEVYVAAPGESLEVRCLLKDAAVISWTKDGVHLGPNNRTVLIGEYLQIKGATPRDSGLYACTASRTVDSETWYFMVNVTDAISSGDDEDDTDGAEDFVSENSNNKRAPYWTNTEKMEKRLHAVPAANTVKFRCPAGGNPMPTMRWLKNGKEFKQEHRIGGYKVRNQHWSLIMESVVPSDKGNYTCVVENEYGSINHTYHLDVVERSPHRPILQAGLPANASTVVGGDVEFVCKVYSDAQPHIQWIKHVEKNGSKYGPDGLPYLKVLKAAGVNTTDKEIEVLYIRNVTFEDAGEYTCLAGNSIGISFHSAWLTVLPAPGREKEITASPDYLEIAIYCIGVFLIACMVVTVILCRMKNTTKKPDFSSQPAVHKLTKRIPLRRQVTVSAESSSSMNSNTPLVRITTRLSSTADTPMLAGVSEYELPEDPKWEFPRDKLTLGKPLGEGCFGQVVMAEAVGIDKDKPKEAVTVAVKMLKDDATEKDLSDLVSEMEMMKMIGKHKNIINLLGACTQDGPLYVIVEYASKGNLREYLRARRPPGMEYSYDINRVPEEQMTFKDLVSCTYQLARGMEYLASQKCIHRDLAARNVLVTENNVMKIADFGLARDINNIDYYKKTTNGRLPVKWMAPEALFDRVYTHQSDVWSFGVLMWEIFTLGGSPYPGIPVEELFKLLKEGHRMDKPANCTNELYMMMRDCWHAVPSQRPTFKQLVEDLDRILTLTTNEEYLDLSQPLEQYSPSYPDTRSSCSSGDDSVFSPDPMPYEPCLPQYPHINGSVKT

EC50 (read off the curve) [1] | IC50 [2] | Inhibition (%) [2] | ODmin [2] | percent competition (epitope binning; value not given) [3] | IC50 [4] | Inhibition (%) [4] | ODmin [4] | EC50 (read off the curve) [5] | percent competition (epitope binning; value not given) [6] | Binder
1 nM | – | – | – | – | – | – | – | – | – | Aprutumab (antibody, INN chains, looked up, V domains shown) VH: EVQLLESGGGLVQPGGSLRLSCAASGFTFSSYAMSWVRQAPGKGLEWVSAISGSGTSTYYADSVKGRFTISRDNSKNTLYLQMNSLRAEDTAVYYCARVRYNWNHGDWFDPWGQGTLVTVSS VL: QSVLTQPPSASGTPGQRVTISCSGSSSNIGNNYVSWYQQLPGTAPKLLIYENYNRPAGVPDRFSGSKSGTSASLAISGLRSEDEADYYCSSWDDSLNYWVFGGGTKLTVL
– | 2.4 nM | 100% | 0.172 OD | 98% | 6.65 nM | 100% | 0.496 OD | 0.2 nM | 98% | FPA144 (antibody, INN chains, looked up, V domains shown) VH: QVQLVQSGAEVKKPGSSVKVSCKASGYIFTTYNVHWVRQAPGQGLEWIGSIYPDNGDTSYNQNFKGRATITADKSTSTAYMELSSLRSEDTAVYYCARGDFAYWGQGTLVTVSS VL: DIQMTQSPSSLSASVGDRVTITCKASQGVSNDVAWYQQKPGKAPKLLIYSASYRYTGVPSRFSGSGSGTDFTFTISSLQPEDIATYYCQQHSTTPYTFGQGTKLEIK
